One molecule from patent US20240336696A1 (PXRADIA MAB TECHNOLOGIES, published 2024) can be followed below.

The target of the assay is T1, CD20 on human B-cell lines (JOK-1, Raji, Ramos) (human, UniProt P11836 1-297).
T1 sequence (looked up): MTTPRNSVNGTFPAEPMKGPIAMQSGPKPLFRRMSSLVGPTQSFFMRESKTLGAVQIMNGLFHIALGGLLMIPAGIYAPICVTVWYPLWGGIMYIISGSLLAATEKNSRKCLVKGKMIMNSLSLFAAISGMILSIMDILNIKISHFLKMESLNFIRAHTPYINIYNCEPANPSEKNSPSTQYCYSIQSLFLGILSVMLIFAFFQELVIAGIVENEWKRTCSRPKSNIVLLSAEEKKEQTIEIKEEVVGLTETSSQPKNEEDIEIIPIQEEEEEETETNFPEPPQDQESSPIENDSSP
As to the kind of experiment: cell-based or functional assay.

B1: chRituximab-HD (chimeric HD antibody identical to chRituximab except for the addition of the HD peptide rs-T15) (antibody, human IgG1, kappa)
heavy: not shown
light: QIVLSQSPAILSASPGEKVTMTCRASSSVSYIHWFQQKPGSSPKPWIYATSNLASGVPVRFSGSGSGTSYSLTISRVEAEDAATYYCQQWTSNPPTFGGGTKLEIKRTVAAPSVFIFPPSDEQLKSGTASVVCLLNNFYPREAKVQWKVDNALQSGNSQESVTEQDSKDSTYSLSSTLTLSKADYEKHKVYACEVTHQGLSSPVTKSFNRGEC
For the molecule B1, the “percent of apoptotic cells against chRituximab, Raji cells, 5 µg/mL” value was 2.5 fold.
